In US5879680A, “Cloned DNA for synthesizing unique glucocerebrosidase” (The United States of America as represented by the …, priority 1995, dated 1999):

B1: recombinant human glucocerebrosidase produced in baculovirus expression system (SF9 cells), culture media enzyme (Homo sapiens) (protein)
chain: ARPCIPKSFGYSSVVCVCNATYCDSFDPPTFPALGTFSRYESTRSGRRMELSMGPIQANHTGTGLLLTLQPEQKFQKVKGFGGAMTDAAALNILALSPPAQNLLLKSYFSEEGIGYNIIRVPMASCDFSIRTYTYADTPDDFQLHNFSLPEEDTKLKIPLIHRALQLAQRPVSLLASPWTSPTWLKTNGAVNGKGSLKGQPGDIYHQTWARYFVKFLDAYAEHKLQFWAVTAENEPSAGLLSGYPFQCLGFTPEHQRDFIARDLGPTLANSTHHNVRLLMLDDQRLLLPHWAKVVLTDPEAAKYVHGIAVHWYLDFLAPAKATLGETHRLFPNTMLFASEACVGSKFWEQSVRLGSWDRGMQYSHSIITNLLYHVVGWTDWNLALNPEGGPNWVRNFVDSPIIVDITKDTFYKQPMFYHLGHFSKFIPEGSQRVGLVASQKNDLDAVALMHPDGSAVVVVLNRSSKDVPLTIKDPAVGFLETISPGYSIHTYLWRRQ
notes: made in house; host or cells: Spodoptera frugiperda SF9 cells, recombinant baculovirus (AcNPV, pAc373/GC)
B2: recombinant human glucocerebrosidase produced in baculovirus expression system (SF9 cells), cell pellet enzyme (Homo sapiens) (protein)
chain: B1 chain

Tests used:
[1] = substrate: Cc1cc(=O)oc2cc(O[C@@H]3O[C@H](CO)[C@@H](O)[C@H](O)[C@H]3O)ccc12; experiment: purified protein, by the assay type; type: biochemical, human; conditions: other: recombinant enzyme in the media, pH 5.9, 100 mM potassium phosphate, 0.15% Triton X-100, 0.125% sodium taurocholate, 37.0 °C
Experimental: For pH profile and inhibition studies, glucocerebrosidase activity was measured using 100 mM potassium phosphate buffer containing 0.15% Triton X-100, 2.5 μl of β-D-[1-^14 C] glucocerebroside (7.5 mg/ml in sodium taurocholate at 50 mg/ml), and the sample in the total volume of 200 ul. Preincubations with conduritol-B-epoxide were for 30 min at 37° C. […] Purification of recombinant glucocerebrosidase was also monitored using 4MUGP.

[2] = substrate: Cc1cc(=O)oc2cc(O[C@@H]3O[C@H](CO)[C@@H](O)[C@H](O)[C@H]3O)ccc12; experiment: purified protein, by the assay type; conditions: other: recombinant enzyme in the cell pellet, pH 5.9, 100 mM potassium phosphate, 0.15% Triton X-100, 0.125% sodium taurocholate, 37.0 °C

| Protein | Km [1] | Km [2] |
| --- | --- | --- |
| B1 | 3.3 mM | – |
| B2 | – | 3.6 mM |
